Broadly, the Kd is the free concentration of one partner at which half of the binding sites on the other are occupied at equilibrium, for simple one-to-one binding. Read a low Kd as a tighter complex.

From patent US20110288276A1 (AstraZeneca / MedImmune, published 2011) come the findings set out here.

The target in experiment [1] is T1, Human FcRn (soluble human neonatal Fc receptor) (human, UniProt P55899 24-290; P61769 21-119, limits assumed).
T1 construct: also called soluble human FcRn
As to the kind of experiment: SPR (BIAcore 3000), ratio of steady-state Kd values, pH 6.0. The text has this: (§1) The interaction of soluble human FcRn with immobilized unmutated human Fc and Fc/YTE was monitored by surface plasmon resonance detection using a BIAcore 3000 instrument (GE Healthcare, Piscataway, N.J.). Unmutated human Fc and Fc/YTE were first coupled to the dextran matrix of a CM5 sensor chip (GE Healthcare) using an Amine Coupling Kit at a surface density of between 4139 and 4291 RU according to the manufacturer's instructions. Human FcRn was used in equilibrium binding experiments at concentrations ranging from 1.46 nM to 3 uM at a flow rate of 5 uL/min. Dilutions and binding experiments were carried out at 25° C. in phosphate buffered saline (PBS), pH 6.0 containing 0.05% Tween 20. Steady-state binding data were collected for 50 min. Both Fc surfaces were regenerated with six 1-min injection of PBS, pH 7.4 containing 0.05% Tween 20. Human FcRn was also allowed to flow over an uncoated cell. The sensorgrams from these blank runs were then subtracted from those obtained with Fc-coupled chips. Dissociation constants (Kds) were determined by fitting the corresponding binding isotherms.
On the technique in general: SPR reads the build-up and loss of mass on a sensor chip optically.

The target in experiment [2] is T1, Human FcRn (soluble human neonatal Fc …). As to the kind of experiment: SPR (BIAcore 3000), Fc amine-coupled to CM5 chip, soluble human FcRn 1.46 nM to 3 uM, steady-state binding isotherm, PBS pH 6.0 with 0.05% Tween 20, 25 C; error is SD of 2 experiments.
Source text: as §1
^a Affinity measurements were carried out by BIAcore as described in Materials and Methods. Errors were estimated as the standard deviations of 2 independent experiments for each interacting pair.

T1 sequence (P55899 24-290 limits assumed, chain 1 of 2): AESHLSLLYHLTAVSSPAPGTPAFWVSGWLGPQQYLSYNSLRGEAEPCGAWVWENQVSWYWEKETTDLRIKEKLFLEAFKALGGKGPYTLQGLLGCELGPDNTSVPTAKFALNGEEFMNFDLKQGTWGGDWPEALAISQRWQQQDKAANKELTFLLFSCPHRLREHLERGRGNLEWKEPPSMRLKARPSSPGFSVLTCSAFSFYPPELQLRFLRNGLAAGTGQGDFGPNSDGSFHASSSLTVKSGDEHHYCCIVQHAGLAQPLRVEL
T1 sequence (P61769 21-119 limits assumed, chain 2 of 2): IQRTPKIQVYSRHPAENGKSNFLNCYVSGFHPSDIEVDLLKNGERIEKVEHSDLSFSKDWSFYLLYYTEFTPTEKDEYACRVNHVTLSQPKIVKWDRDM

B1: Fc/YTE (human IgG1 Fc fragment containing the M252Y/S254T/T256E triple substitution) (other)
chain: GGPSVFLFPPKPKDTLYITREPEVTCVVVDVSHEDPEVKFNWYVDGVEVHNAKTKPREEQYNSTYRVVSVLTVLHQDWLNGKEYKCKVSNKALPAPIEKTISKAKGQPREPQVYTLPPSREEMTKNQVSLTCLVKGFYPSDIAVEWESNGQPENNYKTTPPVLDSDGSFFLYSKLTVDKSRWQQGNVFSCSVMHEALHNHYTQKSLSLS
modifications: one branched N-linked carbohydrate chain attached to N297 (EU numbering)
notes: Fc portion (heavy chain residues 223-447, EU) of MEDI-524 with M252Y/S254T/T256E, expressed in HEK 293 cells; It consists of two chemically identical polypeptides with at least one interchain disulfide at C226 and/or C229; In the assay it was amine-coupled to a CM5 chip; also called human IgG Fc variant; YTE-modified human Fc
In the case of B1, in experiment [1], the “fold higher binding affinity than the unmutated human Fc” value is roughly 8 fold. Besides, the Kd in experiment [2] turned out to be 72 nM.
